For series [1], the target named is FLT3-transfected 3T3 cells (murine FLT3 extracellular portion/human Fms chimera and/or full-length human FLT3; not told apart). Kind of series: cell-based or functional assay.
For series [2], the system named is CB CD34+ progenitor cells. Kind of series: ex vivo culture of CB CD34+ cells: total cell numbers and CFU assay. Format: cell-based, human.
Experimental: Human umbilical cord blood (CB) samples were obtained from full term deliveries. The blood samples were diluted 1:1 in phosphate-buffered-saline (PBS) without Mg^+2/Ca^+2, supplemented with 10% fetal bovine serum (FBS). Low density mononuclear cells were collected after standard separation on Ficoll-Paque (Pharmacia Biotech, Uppsala, Sweden), and washed in RPMI with 10% FBS. Some samples were frozen in 10% DMSO, while the others were used fresh. Enrichment of CD34^+ cells was performed with mini MACS separation kit (Miltenyi Biotec, Bergisch Gladbach, Germany) according to the manufacturer's instructions. The purity of the enriched CD34^+ cells was 60-80% using one column. […]
Ex vivo Cultures Human CD34^+ enriched cells were cultured in 24 well plates (2-4×10^5 cells in 0.5 mL), containing RPMI supplemented with 10% FBS+1% BSA. […] After 3, 6, 10 and 13 days, the cells were collected, counted, analyzed by FACS, seeded in to semisolid cultures and transplanted into NOD-SCID mice.
Semisolid cultures were performed in order to detect the levels of human progenitors in ex vivo cultures, and in the marrow of transplanted mice. […] The cultures were incubated at 37° C. in a humidified atmosphere containing 5% CO2 and scored 14 days later with an inverted microscope for myeloid, erythroid, and mixed colonies by morphologic criteria. […]
The subject of another series is CB CD34+ cells. Put plainly: cell cycle analysis of CD34+ cells (propidium iodide). The settings on record: CD34+ cells cultured 3 days; mean ± SE.
In another series the test system is FLT3 receptor. Format: cell-based. The conditions noted are these: murine chimeric or full length human receptor.
In series [3] the test system is human cord blood progenitors. Put plainly: cord blood mononuclear cell liquid culture followed by methylcellulose colony assay. Type of series: cell-based. The conditions noted are these: for Blast colonies / Erythroid colonies / Mix colonies / Myeloid colonies: 40 ng/ml, ± SD of triplicate. Here is the method:
To do this, umbilical cord blood from healthy donors was collected in 100 units/ml of heparin. Cord blood mononuclear cells (CB mnc) were isolated within 4 hours of collection by separation using the density separation medium sold under the trademark of FICOLL-PAQUE® (Pharmacia Biotech, Piscataway, N.J.) following manufacturer's instruction and washed in X-VIVO 10 medium (BioWhittaker, Walkersville, Md.). CB mnc were then cultured in six well tissue culture plates (Corning Inc., Corning, N.Y.) at a concentration of 200,000 cells/mL in a volume of 4 mL of X-VIVO 10 (i.e., 800,000 cells total per well). Dl-FRIL and/or recombinant E. coli Flt3-L (recFL; BioSource International, Camarillo, Calif.) were added at a concentration of 40 ng/ml at the outset (with no addition as a control). Cultures were incubated in humidified chambers without medium changes for up to 29 days.
After incubation, the cultured CB mnc cells were harvested by washing in X-VIVO 10 (i.e., harvested cells were pelleted and resuspended in X-VIVO 10) to remove the Dl-FRIL and/or recFL, and then determining viable cell number by trypan blue (Sigma) exclusion.
The progenitor capacity of the blast-like colonies was examined further for cells initially cultured for 3 weeks in either Dl-FRIL, recFL, no addition, or Dl-FRIL+recFL, and then without these regulators for an additional 6 weeks in a methylcellulose colony assay. […] Viable cells were harvested from the cells initially cultured in Dl-FRIL alone and replated in an colony assay (in methylcellulose colony assay medium) for an additional 4 weeks.

For series [4] the following is noted: in vivo; cited from earlier work.
For series [5], the system named is Flt3-expressing 3T3 cells. Put plainly: Flt3 3T3 assay during purification of Pv-FRIL. Format: cell-based. The settings on record: by itself at <1 ng/mL. Here is the method:
To create factor-dependence for receptor-transfected 3T3 cells, growth conditions were compromised to permit only ligands to rescue cells from death. To do this, 3T3 cell lines were assayed in 96 well plates (Becton Dickinson Labware, Lincoln Park, N.J.) containing 3,000 cells in 100 μL of serum-free medium consisting of 10% AIMV (Life Technologies) and 90% DMEM. In each experiment, samples were serially diluted two-fold across rows starting at a 1:10 dilution. Viable cells were quantitated after 3-5 days by XTT (2,3-bis[Methoxy-4-nitro-5sulfophenyl]-2H-tetrazolium-5 carboxanilide inner salt) (Sigma, St. Louis, Mo.) (Roehm et al., supra). Relative activity (units/ml) and specific activity (units/mg) are defined as the reciprocal dilution at which half-maximal stimulation of cells was detected.
Each batch of PHA-LCM was generated in serum-free medium with cells from individual normal donors. To start purification, the PHA-LCM with Flt3 3T3 activity was pooled in 30 liter lots with approximately 10^7 Flt3 3T3 units. Twenty-five liters of PHA-LCM was diafiltered into 50 mM Tris-HCl, pH 7.6, 50 mM NaCl and then concentrated to 2-2.5 liters by tangential flow ultrafiltration on a 10 kDa molecular weight cutoff membrane (Pellicon, Millipore, Bedford, Mass.). A Blue-sepharose FF (Pharmacia Biotech) column (10 cm×15 cm) was equilibrated with 50 mM Tris-HCl, pH 7.4,50 mM NaCl. […]

Text for FLT3 receptor: A specific and quantitative biological assay using NIH 3T3 fibroblasts transfected either with a chimeric receptor having the extracellular portion of the murine FLT3 receptor combined with the intracellular portion of the human Fms receptor (Dosil et al., Mol. Cell. Biol. 13(10):6572-6585 1993) or with the full length human receptor (Small et al., Proc. Natl. Acad. Sci. USA 91:459-463, 1994) can be used to evaluate lectin biological activity during purification. Serial two-fold dilutions of lectin samples across rows of a 96 well plate allowed for greater than a thousand-fold range to access FLT3 3T3 biological activity.
Specifically, 3T3 cells cultured in tissue culture plates (Becton Dickinson Labware, Lincoln Park, N.J.) were removed from the plates by washing cells twice in Hank's buffered saline solution (HBSS; Gibco Laboratories, Grand Island, N.Y.). […] Proliferation and cell survival was quantitated by addition of XTT (2, 3-bis[Methoxy-4-nitro-5sulfophenyl]-2H-tetrazolium-5 carboxanilide inner salt) (Diagnostic Chemicals Ltd, Charlottetown, Prince Edward Island, Canada), which is a tetraformazan salt cleaved by actively respiring cells (Roehm et al., J. Immunol. Methods 142: 257-265, 1991). […] One unit of biological activity was defined as the reciprocal dilution at which half-maximal stimulation of cells is detected.

The molecule “Pv-FRIL (native, from Phaseolus vulgaris red kidney bean extract / purified from PHA-LCM)” returned a Specific Activity (u/mg) in the Flt3 3T3 assay, Superdex 75 step in series [1] of 244000 units/mg.

B1: recFL: recombinant E. coli Flt3-L (FLT3 ligand) (protein, UniProt P49771 27-235, looked up)
Fms-related tyrosine kinase 3 …: TQDCSFQHSPISSDFAVKIRELSDYLLQDYPVTVASNLQDEELCGGLWRLVLAQRWMERLKTVAGSKMQGLLERVNTEIHFVTKCAFQPPPSCLRFVQTNISRLLQETSEQLVALKPWITRQNFSRCLELQCQPDSSTLPPPWSPRPLEATAPTAPQPPLLLLLLLPVGLLLLAAAWCLHWQRTRRRTPRPGEQVPPVPSPQDLLLVEH
As for B1, the “increase in number of total cells” value in series [2] (10 days of suspension culture, FIG. 34A) was determined as 4.5 fold. For the same molecule, the “percentage of CFU-GEMM” value in series [2] (first factor 6 days, then cytokines) was found to be 18.2%. Also, in the series with CB CD34+ cells, the G0/G1 is recorded as 68.4 ± 2.1 percentage, the SG2M is on record as 22.2 ± 5.4 percentage and the “Sub G0/G1” value amounted to 9.4 ± 3.3 percentage. The “rescue of FLT3-transfected 3T3 cells from death” value with FLT3 receptor is recorded as “rescue FLT3-transfected cells from death”. The “colonies after 21 days culture and 6 weeks methylcellulose colony assay” value in series [3] is on record as “No colonies were detected”. The “fewer mature colonies than with FRIL or FRIL plus recFL” value in series [3] (cells cultured 15 days) is recorded as 24 fold. In series [3] (day 15 of culture), this molecule showed a Blast colonies of 0, an Erythroid colonies of 0, a Mix colonies of 0 and a Myeloid colonies of 40 ± 69. In series [3] (day 21 of culture), the Blast colonies is recorded as 0, the Erythroid colonies was found to be 0, the Mix colonies stood at 0 and the Myeloid colonies is 0. Also, in series [3] (day 29 of culture), the Blast colonies worked out at 0, the Erythroid colonies was found to be 0, the Mix colonies is recorded as 0 and the Myeloid colonies turned out to be 0.

B2: peanut agglutinin (PNA): dietary lectin from raw peanuts (protein, UniProt P02872 24-273, looked up)
Galactose-binding lectin: AETVSFNFNSFSEGNPAINFQGDVTVLSNGNIQLTNLNKVNSVGRVLYAMPVRIWSSATGNVASFLTSFSFEMKDIKDYDPADGIIFFIAPEDTQIPAGSIGGGTLGVSDTKGAGHFVGVEFDTYSNSEYNDPPTDHVGIDVNSVDSVKTVPWNSVSGAVVKVTVIYDSSTKTLSVAVTNDNGDITTIAQVVDLKAKLPERVKFGFSASGSLGGRQIHLIRSWSFTSTLITTTRRSIDNNEKKIMNMASA
Take B2: the “level in the blood” value in series [4] was 1000 to 5000 ng/mL.

B3: recombinant hIL1-α: exogenous recombinant human interleukin 1-α (protein, UniProt P01583 113-271, looked up)
Interleukin-1 alpha: SAPFSFLSNVKYNFMRIIKYEFILNDALNQSIIRANDQYLTAAALHNLDEAVKFDMGAYKSSKDDAKITVILRISKTQLYVTAQDEDQPVLLKEMPEIPKTITGSETNLLFFWETHGTKNYFTSVAHPNLFIATKQDYWVCLAGGPPSITDFQILENQA
As for B3, the “stimulatory activity on Flt3 3T3 cells” value in series [5] is “no stimulatory activity”.

Source of the values: patent US6991794B1, “Progenitor cell preservation factors and methods for and products of their use” (ImClone Systems Incorporated, priority 1997, dated 2006).
